Changes are numbered by the printed parent chain. Names and notes keep the numbering of the source. “Also recorded” adds a separate entry of the source. Like-named read-outs stand apart in the source and are kept apart here.

The text below walks through data of patent publication US10487348B2, “3-alpha-hydroxysteroid dehydrogenase mutants and process for the preparation of ursodeoxycholic acid” (Pharmazell GmbH, priority 2014, dated 2019).

Substrate in series [1]: C[C@H](CCC(=O)O)[C@H]1CC[C@H]2[C@@H]3C(=O)C[C@@H]4CC(=O)CC[C@]4(C)[C@H]3CC(=O)[C@]12C
The series is described as follows: Kinetics of 3α-HSDH [T188G], N-terminal His tag. Format: biochemical, Comamonas testosteroni. The settings on record: other: Table 14, substrate DHCA, apparent values, pH 8.0. On the procedure: The activity of the 3α-HSDH and of the mutants was determined using a photometric assay, where the decrease in absorbance was measured at 340 nm over a period of 30 seconds.
The targeted exchange of amino acid radicals was performed analogously to Example 2B.
Following cultivation and expression, the cells were harvested, and the specific activities of the cell-free crude extracts were determined at substrate concentrations of 10 mM DHCA. The enzyme variants where the activity measurements with crude extract enzyme were most promising were purified by means of Ni-NTA chromatography, and their kinetic constants were determined by measurements with different DHCA concentrations of between 10 μM and 20 mM. In addition, an expression check by means of SDS PAGE was carried out for all mutants.

Series [2] has as its target T1, 3α-HSDH; substrate DHCA (Comamonas testosteroni, UniProt P80702).
T1 sequence (P80702 whole entry, looked up): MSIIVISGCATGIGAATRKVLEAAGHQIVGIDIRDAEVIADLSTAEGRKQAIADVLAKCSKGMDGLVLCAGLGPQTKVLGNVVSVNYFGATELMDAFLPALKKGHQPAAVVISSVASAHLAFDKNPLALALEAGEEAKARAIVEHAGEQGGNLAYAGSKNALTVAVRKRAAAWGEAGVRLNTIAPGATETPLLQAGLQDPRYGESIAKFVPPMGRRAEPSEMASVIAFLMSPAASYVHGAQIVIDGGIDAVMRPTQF
Format: biochemical.

Series [3] relates to 3α-HSDH; substrate DHCA. It counts as biochemical, Comamonas testosteroni.
The target of series [4] is 3α-HSDH; substrate DHCA (Comamonas testosteroni, UniProt P80702, R34N). Format: biochemical. The settings on record: versus wild type.
In series [5] the target is 3α-HSDH; substrate DHCA (Comamonas testosteroni, UniProt P80702, L68A/R34N). Format: biochemical. Particulars: purified enzyme.
Series [6] deals with 3α-HSDH; substrate DHCA. It counts as biochemical, Comamonas testosteroni. The settings on record: substrate DHCA; FIGS. 8A-8B; listed as dual mutant.
[7] abbreviates: Table 4, variants modified at position 34.
[8] abbreviates: Table 9, crude extract, dual mutant position 34 and 68.
Setting [9] is: Table 7, variants modified at position 68.

B1: Comamonas testosteroni 3α-HSDH mutant [T188G], N-terminal hexahistidine tag (Comamonas testosteroni; T188G) (protein)
chain: T1 sequence (P80702 whole entry, looked up) with T188G
Broadly, the Km is the concentration of substrate that gives half-maximal velocity. For orientation: kcat means the number of substrate molecules converted per active site and unit of time at saturation. With B1, in series [1], the Km is 1458 ± 182.6 µM, the Vmax turned out to be 20.3 ± 0.8 U/mg and the kcat was 9.6 s⁻¹.

B2: Crude extract (without His tag): non-tagged wild-type 3α-HSDH of Comamonas testosteroni (SEQ ID NO: 4) (protein, listed as Comamonas testosteroni)
chain: T1 sequence (P80702 whole entry, looked up)
As to B2, the “DHCA concentration at which maximum activity is reached” value in the series with 3α-HSDH; substrate DHCA [2] is listed as “approximately 1 mM”.

B3: 3α-HSDH [R34N] (protein)
chain: MSIIVISGCATGIGAATRKVLEAAGHQIVGIDINDAEVIADLSTAEGRKQAIADVLAKCSKGMDGLVLCAGLGPQTKVLGNVVSVNYFGATELMDAFLPALKKGHQPAAVVISSVASAHLAFDKNPLALALEAGEEAKARAIVEHAGEQGGNLAYAGSKNALTVAVRKRAAAWGEAGVRLNTIAPGATETPLLQAGLQDPRYGESIAKFVPPMGRRAEPSEMASVIAFLMSPAASYVHGAQIVIDGGIDAVMRPTQFLEHHHHHH
As to B3, in the series on 3α-HSDH; substrate DHCA [3] (setting [7]), the Specific activity is 3.0 U/mg and the Volumetric activity was 58.0 U/ml. For the same molecule, the “activity improved (best mutant at position 34)” value with 3α-HSDH; substrate DHCA [4] is reported as “approx. 3 fold”.

B4: 3α-HSDH [R34N/L68A] (protein)
chain: B3 chain with L68A
As for B4, the “increase of the maximum activity over the wild type” value with 3α-HSDH; substrate DHCA [5] was “approx. 25%”. In addition, the “activity compared with the wild type with His tag (courses of Michaelis-Menten kinetics)” value with 3α-HSDH; substrate DHCA [6] is given as “not being quite as active as the wild type at low substrate concentrations; also recorded: markedly higher activities than the wild-type enzyme at higher substrate concentrations”. For the same molecule, in the series with 3α-HSDH; substrate DHCA [3] (setting [8]), the Specific activity is reported as 4.5 U/mg and the Volumetric activity was 139.7 U/ml.

B5: 3α-HSDH (WT): Comamonas testosteroni 3α-HSDH wild type, C-terminally extended by His-Tag LEHHHHHH (SEQ ID NO: 5) (protein)
chain: B3 chain with N34R
modifications: C-terminal His-tag LEHHHHHH
Consider B5, for which the substrate excess inhibition result with 3α-HSDH; substrate DHCA [2] is “no longer demonstrates the pronounced substrate excess inhibition”. Also, the Specific activity with 3α-HSDH; substrate DHCA [3] (setting [7]), in the series with 3α-HSDH; substrate DHCA [3] (setting [9]) and with 3α-HSDH; substrate DHCA [3] (setting [8]) was 2.1 U/mg each time. The Volumetric activity was 38.0 U/ml in the series with 3α-HSDH; substrate DHCA [3] (setting [7]), 44.9 U/ml in the series on 3α-HSDH; substrate DHCA [3] (setting [9]) and 44.9 U/ml in the series with 3α-HSDH; substrate DHCA [3] (setting [8]).
